Assay results as given in publication PMC4208029 (Scientific Reports, 2014).

Biological target: T1, human full-length glucose transporter GLUT-1 (human, UniProt P11166 1-492)
T1 sequence (looked up): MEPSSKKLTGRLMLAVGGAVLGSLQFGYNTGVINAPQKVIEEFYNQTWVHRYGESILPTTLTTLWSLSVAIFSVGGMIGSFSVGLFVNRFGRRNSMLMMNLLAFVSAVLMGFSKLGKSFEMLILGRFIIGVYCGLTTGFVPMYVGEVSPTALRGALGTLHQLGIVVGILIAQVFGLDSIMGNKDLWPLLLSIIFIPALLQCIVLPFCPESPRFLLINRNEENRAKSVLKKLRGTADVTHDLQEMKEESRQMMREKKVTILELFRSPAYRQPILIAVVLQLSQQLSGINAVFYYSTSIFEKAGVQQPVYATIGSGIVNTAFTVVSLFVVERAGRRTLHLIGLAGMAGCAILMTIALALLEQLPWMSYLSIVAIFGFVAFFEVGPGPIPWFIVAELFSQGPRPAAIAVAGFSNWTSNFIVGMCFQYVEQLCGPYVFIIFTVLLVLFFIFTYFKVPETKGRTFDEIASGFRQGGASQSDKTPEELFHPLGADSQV
Assay: SPR

Kd: 22.3 nM
koff: 0.0016 s⁻¹
kon: 120000 M⁻¹ s⁻¹
B1: Nb-GLUT-1 (VHH)
VHH: QVQLLESGGGLVQPGGSLRLSCAASGFTFSSYAMSWVRQAPGKGLEWVSTITAKGRQTYYADSVKGRFTISRDNSKNTLYLQMNSLRAEDTAVYYCATGPMYQPQFGSWGQGTLVTVSS
